In general, EC50 refers to the concentration giving half of the maximal effect. For orientation: Kd means the equilibrium constant for the complex coming apart.

Residue numbers refer to the chain shown, from its start.

Experimental findings from patent US20250277045A1 (KEYMED BIOSCIENCES, published 2025) are described below.

The target in assay [1] is T1, human CD3 on T cells (Jurkat cells; human peripheral blood CD4+ and CD8+ T cells) (human, UniProt P07766 23-207).
T1 construct: whole, on cells; also called CD3ε
T1 sequence (P07766 23-207): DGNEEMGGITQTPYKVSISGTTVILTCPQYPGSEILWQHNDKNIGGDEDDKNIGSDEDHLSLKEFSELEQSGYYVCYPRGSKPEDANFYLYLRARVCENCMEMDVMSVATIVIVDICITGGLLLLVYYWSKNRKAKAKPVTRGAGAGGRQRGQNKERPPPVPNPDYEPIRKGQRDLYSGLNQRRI
Nature of the assay: flow cytometry, Jurkat cells. Here is the method: Jurkat cells in the logarithmic growth phase were added with 200 μg/mL murine IgG (Jackson ImmunoResearch, 115-005-03) and incubated on ice for 30 min. […] 50 μL/well Alexa Fluro647 labeled goat anti-human IgG Fc (1:300 dilution) was added to the secondary antibody, incubated on ice for 20 min, 50 μL/well PI was added after washing once, incubated for 5 min, and flow cytometer (BD C6) was used to perform detection.
On the technique in general: A flow cytometer gives signals particle by particle.

Assay [2] deals with T2, human BCMA on cells (CHO-hBCMA clone 2C2; NCI-H929; RPMI-8226) (human, UniProt Q02223 1-184).
T2 construct: whole, on cells; also called Human BCMA-CHO; CHO-hBCMA-2C2
T2 sequence (looked up): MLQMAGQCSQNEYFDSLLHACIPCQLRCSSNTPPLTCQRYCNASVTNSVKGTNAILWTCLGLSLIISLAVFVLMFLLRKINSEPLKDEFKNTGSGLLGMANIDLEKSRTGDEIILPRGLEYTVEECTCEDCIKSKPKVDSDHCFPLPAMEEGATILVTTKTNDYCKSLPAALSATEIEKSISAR
Put plainly: flow cytometry, NCI-H929 cells. Here is the method:
(§1) The primary antibody was washed off, 50 μL/well Alexa Fluro647 labeled goat anti-human IgG Fc (1:300 dilution) was added, incubated on ice for 20 min, 50 μL/well PI was added after washing once, incubated for 5 min, and flow cytometer was used to perform detection.

For assay [3], the target named is T1, human CD3 on T cells (Jurkat cells; …). Nature of the assay: flow cytometry, peripheral blood CD4+ T cells (PBMC). Here is the method:
(§2) Fresh human or cynomolgus monkey peripheral blood was taken and PBMC was isolated by Ficoll-Paque Plu (GE, 17-1440-03). […] 50 μL/well Alexa Fluro647 labeled goat anti-human IgG Fc (1:300 dilution) was added to the secondary antibody, ice bath for 20 min, 50 μL/well PI was added after washing once, incubated for 5 min, and flow cytometer (BD C6) was used to perform detection.

The target in assay [4] is T2, human BCMA on cells (CHO-hBCMA clone …). Nature of the assay: flow cytometry, CHO-human BCMA cells. Here is the method: (§3) 50 μL/well Alexa Fluro647 labeled goat anti-human IgG Fc (1:300 dilution) was added to the secondary antibody, incubated on ice for 20 min, 50 μL/well PI solution (1:300) was added after washing once, incubated for 5 min, and flow cytometer was used to perform detection.

Assay [5] addresses T3, cynomolgus monkey BCMA on CHO cells (CHO-cynoBCMA clone 1A2) (cynomolgus monkey, UniProt A0A2K5UD97 1-183).
T3 construct: whole, on cells; also called Cynomolgus monkey BCMA-CHO; CHO-cynoBCMA-1A2
Put plainly: flow cytometry, CHO-cynomolgus monkey BCMA cells. Here is the method:
as §3

Assay [6] addresses T4, human BCMA recombinant antigen (human, UniProt Q02223 1-53).
T4 construct: range 1-53; also called human BCMA recombinant protein
T4 sequence (looked up): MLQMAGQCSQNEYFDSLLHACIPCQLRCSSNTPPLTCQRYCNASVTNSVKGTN
Put plainly: competition ELISA, coated human BCMA, antibody varied, then biotinylated human APRIL at 240 ng/mL, SA-HRP. Here is the method:
1 μg/mL human BCMA recombinant antigen was prepared with pH 9.6 carbonic acid buffer, added to a maxisorp96-well plate, and coated overnight at 4° C. After blocking with 5% skim milk/PBS for 1 h at room temperature, 50 μL antibody per well (4-fold dilution from 30 μg/mL for a total of 10 gradients) was added and incubated for 30 min at room temperature. […] After 3 washes with 0.05% PBST (PBS+0.05% Tween-20) and PBS respectively, 100 μL of SA-HRP (diluted 1:8000) was added to each well and incubated at room temperature for 45 min. Washing 3 times with 0.05% PBST and PBS respectively, 100 μL TMB color-developing solution was added into each well, after 10 min, 50 μL concentrated sulfuric acid was added into each well to stop the reaction, read OD450 nm by a microplate reader, and perform three-parameter fitting curve using Graphpad software.
Background: In an ELISA, binding on a coated surface is turned into a signal by an enzyme label.

For assay [7], the target named is T4, human BCMA recombinant antigen. Nature of the assay: SPR (Biacore T200), antigen amine-coupled to CM5, antibody as analyte, 1:1 model. Here is the method:
(§4) 10 μg/mL human or cynomolgus monkey BCMA or CD3εγ recombinant antigen was bound to a CM5 chip (GE healthcare) by amino coupling, controlling the amount of antigen bound to approximately 200 RU. After the baseline plateau, gradient-diluted antibodies (from 10 μg/mL, 2-fold dilutions for 7 gradients) flowed through the chip at a flow rate of 30 μL/min for a binding time of 350 seconds and a dissociation time of 600 seconds. Kinetic constants were fitted using Biacore T200 evaluation software with a 1:1 binding model.
For orientation: In SPR one partner is held on a chip, and binding of the other changes the refractive index at the surface.

The target in assay [8] is T5, cynomolgus monkey CD3εγ-Fc heterodimer (cynomolgus monkey).
T5 chain 1: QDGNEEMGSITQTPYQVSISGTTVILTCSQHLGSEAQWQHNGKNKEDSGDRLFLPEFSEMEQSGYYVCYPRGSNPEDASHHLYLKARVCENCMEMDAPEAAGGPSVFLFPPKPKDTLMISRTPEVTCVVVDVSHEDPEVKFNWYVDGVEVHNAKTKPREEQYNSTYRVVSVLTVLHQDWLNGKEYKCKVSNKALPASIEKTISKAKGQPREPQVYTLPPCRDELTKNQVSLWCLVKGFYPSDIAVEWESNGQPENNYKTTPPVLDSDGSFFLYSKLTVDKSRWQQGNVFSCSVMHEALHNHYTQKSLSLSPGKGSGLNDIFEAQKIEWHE
T5 chain 2: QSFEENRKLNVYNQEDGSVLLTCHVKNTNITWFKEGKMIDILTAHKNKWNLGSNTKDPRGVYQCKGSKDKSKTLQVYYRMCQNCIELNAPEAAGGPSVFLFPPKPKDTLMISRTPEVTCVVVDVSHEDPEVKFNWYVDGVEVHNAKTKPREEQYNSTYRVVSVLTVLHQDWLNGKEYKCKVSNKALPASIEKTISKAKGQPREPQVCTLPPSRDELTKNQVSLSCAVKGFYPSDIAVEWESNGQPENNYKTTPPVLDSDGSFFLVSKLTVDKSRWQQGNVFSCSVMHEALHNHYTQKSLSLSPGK
The assay is described as above. Here is the method:
as §4

In assay [9] the target is T6, cynomolgus monkey BCMA recombinant antigen (cynomolgus monkey, UniProt A0A2K5UD97 1-51).
T6 construct: range 1-52
T6 sequence (A0A2K5UD97 entry or part of it): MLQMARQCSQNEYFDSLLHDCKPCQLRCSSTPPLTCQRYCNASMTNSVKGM
The description is as above. Here is the method: as §4

Assay [10] addresses T2, human BCMA on cells (CHO-hBCMA clone …). Nature of the assay: flow cytometry, RPMI-8226 cells. Here is the method: as §1
The target of assay [11] is T1, human CD3 on T cells (Jurkat cells; …). Put plainly: flow cytometry, peripheral blood CD8+ T cells (PBMC). Here is the method: as §2

T3 sequence (A0A2K5UD97 entry or part of it): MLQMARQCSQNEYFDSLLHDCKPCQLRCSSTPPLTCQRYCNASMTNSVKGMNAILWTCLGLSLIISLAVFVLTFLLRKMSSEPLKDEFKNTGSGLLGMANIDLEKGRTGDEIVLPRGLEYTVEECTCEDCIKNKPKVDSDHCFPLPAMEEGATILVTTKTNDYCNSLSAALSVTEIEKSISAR

B1: BCMA×CD3 κλ005 (bispecific antibody, human IgG4 S228P, kappa, lambda)
light 1: DIVLTQSPASLAVSPGQRATITCRASKSVSTSGYSYMHWYQKKPGQPPKLLIYLASNLESGVPARFSGSGSGTDFTLTINPVEAEDTANYYCQHSRELPWTFGQGTKVEIKRTVAAPSVFIFPPSDEQLKSGTASVVCLLNNFYPREAKVQWKVDNALQSGNSQESVTEQDSKDSTYSLSSTLTLSKADYEKHKVYACEVTHQGLSSPVTKSFNRGEC
heavy 1: QVQLVQSGSELKKPGASVKVSCKASGYIFTNFGMNWVREAPGQGLEWMGWINTYTGEQIYADGFTGRFVFSLDTSVSTAYLQISSLKAEDTAVYFCARGEIYYGYDVGFVYWGQGTLVTVSSASTKGPSVFPLAPCSRSTSESTAALGCLVKDYFPEPVTVSWNSGALTSGVHTFPAVLQSSGLYSLSSVVTVPSSSLGTKTYTCNVDHKPSNTKVDKRVESKYGPPCPPCPAPEFEGGPSVFLFPPKPKDTLMISRTPEVTCVVVDVSQEDPEVQFNWYVDGVEVHNAKTKPREEQFNSTYRVVSVLTVLHQDWLNGKEYKCKVSNKGLASSIEKTISKAKGQPREPQVCTLPPSQEEMTKNQVSLSCAVKGFYPSDIAVEWESNGQPENNYKTTPPVLDSDGSFFLVSKLTVDKSRWQEGNVFSCSVMHEALHNHYTQKSLSLSLGK
light 2: QAVVTQEPSLTVSPGGTVTLTCRSSTGAVTTSNYANWVQEKPGQAPRGLIGGTNKRAPWTPARFSGSLLGGKAALTITGAQAEDEAEYYCVLWYSNLWVFGGGTKLTVLGQPKAAPSVTLFPPSSEELQANKATLVCLISDFYPGAVTVAWKADSSPVKAGVETTTPSKQSNNKYAASSYLSLTPEQWKSHRSYSCQVTHEGSTVEKTVAPTECS
heavy 2: EVQLVESGGGLVQPGGSLRLSCAASGFTFNTYAMNWVRKAPGKGLEWVGRIRSKYNNYATYYADSVKDRFTISRDDSKNSLYLQMNSLKTEDTAVYYCVRHGNFGNSYVSWFAYWGQGTLVTVSSASTKGPSVFPLAPCSRSTSESTAALGCLVKDYFPEPVTVSWNSGALTSGVHTFPAVLQSSGLYSLSSVVTVPSSSLGTKTYTCNVDHKPSNTKVDKRVESKYGPPCPPCPAPEFEGGPSVFLFPPKPKDTLMISRTPEVTCVVVDVSQEDPEVQFNWYVDGVEVHNAKTKPREEQFNSTYRVVSVLTVLHQDWLNGKEYKCKVSNKGLASSIEKTISKAKGQPREPQVYTLPPCQEEMTKNQVSLWCLVKGFYPSDIAVEWESNGQPENNYKTTPPVLDSDGSFFLYSKLTVDKSRWQEGNVFSCSVMHEALHNHYTQKSLSLSLGK
For the molecule B1, the EC50 amounted to 51 nM in assay [1]; 33 nM in assay [2]; 66 nM in assay [3]; 24 nM in assay [4]; 3 nM in assay [5]; 38 nM in assay [10]. The EC50 in [11] was 60 nM. Moreover, the “IC50 (read off the curve)” value in assay [6] is ~3 nM. For the same molecule, the Kd in assay [7] is 1.1 nM; in [8], 20 nM; in assay [9], 0.09 nM.

B2: BCMA×CD3 κλ006 (bispecific antibody, human IgG4 S228P, kappa, lambda)
light 1: B1 light 1 with S30T, M37I, N57D, S60A
heavy 1: B1 heavy 1
light 2: B1 light 2
heavy 2: B1 heavy 2
Turning to B2, the concentration for a half-maximal effect (EC50) in assay [1] was found to be 56 nM; in assay [2], 32 nM; in [3], 91 nM; in assay [4], 16 nM; in assay [5], 3 nM; in assay [10] it was 19 nM. The molecule further showed an EC50 in [11] of 93 nM. Moreover, the “IC50 (read off the curve)” value in assay [6] was ~2 nM. Further, the figures for the Kd in assay [7], in assay [8] and in assay [9] were 1.2 nM, 33 nM and 0.1 nM, respectively.
